Measured values taken from patent US20260207798A1, “CYCLIC PEPTIDES AS PET IMAGING AGENTS OF GRANZYME B” (priority 2022, published 2026).
Bridge positions count the residues as written; N and C are the ends. * marks the point of attachment. NOTA‑1 = 1,4,7-triazacyclononane-N,N',N''-triacetic acid phenyl thiourea; Peg4 = polyethylene glycol with 4 units (PEG4); Propionyl = CCC(=O)*

B1: Compound 73a (peptide)
peptide: {CH2CO}-FNFEDQSAETWQPCG-NH2
modifications: thioether N-14
SMILES: C[C@@H]1NC(=O)[C@H](CO)NC(=O)[C@H](CCC(N)=O)NC(=O)[C@H](CC(=O)O)NC(=O)[C@H](CCC(=O)O)NC(=O)[C@H](Cc2ccccc2)NC(=O)[C@H](CC(N)=O)NC(=O)[C@H](Cc2ccccc2)NC(=O)CSC[C@@H](C(=O)NCC(N)=O)NC(=O)[C@@H]2CCCN2C(=O)[C@H](CCC(N)=O)NC(=O)[C@H](Cc2c[nH]c3ccccc23)NC(=O)[C@H]([C@@H](C)O)NC(=O)[C@H](CCC(=O)O)NC1=O
B2: Compound 74a (peptide)
peptide: {CH2CO}-FNFEDQSAQTWQPCG-NH2
modifications: thioether N-14
SMILES: C[C@@H]1NC(=O)[C@H](CO)NC(=O)[C@H](CCC(N)=O)NC(=O)[C@H](CC(=O)O)NC(=O)[C@H](CCC(=O)O)NC(=O)[C@H](Cc2ccccc2)NC(=O)[C@H](CC(N)=O)NC(=O)[C@H](Cc2ccccc2)NC(=O)CSC[C@@H](C(=O)NCC(N)=O)NC(=O)[C@@H]2CCCN2C(=O)[C@H](CCC(N)=O)NC(=O)[C@H](Cc2c[nH]c3ccccc23)NC(=O)[C@H]([C@@H](C)O)NC(=O)[C@H](CCC(N)=O)NC1=O
B3: Compound 77a (peptide)
peptide: {CH2CO}-FNFEDQSAATWQPCG-NH2
modifications: thioether N-14
SMILES: C[C@@H]1NC(=O)[C@H](C)NC(=O)[C@H](CO)NC(=O)[C@H](CCC(N)=O)NC(=O)[C@H](CC(=O)O)NC(=O)[C@H](CCC(=O)O)NC(=O)[C@H](Cc2ccccc2)NC(=O)[C@H](CC(N)=O)NC(=O)[C@H](Cc2ccccc2)NC(=O)CSC[C@@H](C(=O)NCC(N)=O)NC(=O)[C@@H]2CCCN2C(=O)[C@H](CCC(N)=O)NC(=O)[C@H](Cc2c[nH]c3ccccc23)NC(=O)[C@H]([C@@H](C)O)NC1=O
B4: Compound 78a (peptide)
peptide: {CH2CO}-FNFEDQSAFTWQPCG-NH2
modifications: thioether N-14
SMILES: C[C@@H]1NC(=O)[C@H](CO)NC(=O)[C@H](CCC(N)=O)NC(=O)[C@H](CC(=O)O)NC(=O)[C@H](CCC(=O)O)NC(=O)[C@H](Cc2ccccc2)NC(=O)[C@H](CC(N)=O)NC(=O)[C@H](Cc2ccccc2)NC(=O)CSC[C@@H](C(=O)NCC(N)=O)NC(=O)[C@@H]2CCCN2C(=O)[C@H](CCC(N)=O)NC(=O)[C@H](Cc2c[nH]c3ccccc23)NC(=O)[C@H]([C@@H](C)O)NC(=O)[C@H](Cc2ccccc2)NC1=O
B5: Compound 79a (peptide)
peptide: {CH2CO}-FNFEDQSASTWQPCG-NH2
modifications: thioether N-14
SMILES: C[C@@H]1NC(=O)[C@H](CO)NC(=O)[C@H](CCC(N)=O)NC(=O)[C@H](CC(=O)O)NC(=O)[C@H](CCC(=O)O)NC(=O)[C@H](Cc2ccccc2)NC(=O)[C@H](CC(N)=O)NC(=O)[C@H](Cc2ccccc2)NC(=O)CSC[C@@H](C(=O)NCC(N)=O)NC(=O)[C@@H]2CCCN2C(=O)[C@H](CCC(N)=O)NC(=O)[C@H](Cc2c[nH]c3ccccc23)NC(=O)[C@H]([C@@H](C)O)NC(=O)[C@H](CO)NC1=O
B6: Compound 80a (peptide)
peptide: {CH2CO}-FNFEDQSALTWQPCG-NH2
modifications: thioether N-14
SMILES: CC(C)C[C@@H]1NC(=O)[C@H](C)NC(=O)[C@H](CO)NC(=O)[C@H](CCC(N)=O)NC(=O)[C@H](CC(=O)O)NC(=O)[C@H](CCC(=O)O)NC(=O)[C@H](Cc2ccccc2)NC(=O)[C@H](CC(N)=O)NC(=O)[C@H](Cc2ccccc2)NC(=O)CSC[C@@H](C(=O)NCC(N)=O)NC(=O)[C@@H]2CCCN2C(=O)[C@H](CCC(N)=O)NC(=O)[C@H](Cc2c[nH]c3ccccc23)NC(=O)[C@H]([C@@H](C)O)NC1=O
B7: Compound 81a (peptide)
peptide: {CH2CO}-FNFEDQSANTWQPCG-NH2
modifications: thioether N-14
SMILES: C[C@@H]1NC(=O)[C@H](CO)NC(=O)[C@H](CCC(N)=O)NC(=O)[C@H](CC(=O)O)NC(=O)[C@H](CCC(=O)O)NC(=O)[C@H](Cc2ccccc2)NC(=O)[C@H](CC(N)=O)NC(=O)[C@H](Cc2ccccc2)NC(=O)CSC[C@@H](C(=O)NCC(N)=O)NC(=O)[C@@H]2CCCN2C(=O)[C@H](CCC(N)=O)NC(=O)[C@H](Cc2c[nH]c3ccccc23)NC(=O)[C@H]([C@@H](C)O)NC(=O)[C@H](CC(N)=O)NC1=O
B8: Compound 82a (peptide)
peptide: {CH2CO}-FNFEDQSATTWQPCG-NH2
modifications: thioether N-14
SMILES: C[C@@H]1NC(=O)[C@H](CO)NC(=O)[C@H](CCC(N)=O)NC(=O)[C@H](CC(=O)O)NC(=O)[C@H](CCC(=O)O)NC(=O)[C@H](Cc2ccccc2)NC(=O)[C@H](CC(N)=O)NC(=O)[C@H](Cc2ccccc2)NC(=O)CSC[C@@H](C(=O)NCC(N)=O)NC(=O)[C@@H]2CCCN2C(=O)[C@H](CCC(N)=O)NC(=O)[C@H](Cc2c[nH]c3ccccc23)NC(=O)[C@H]([C@@H](C)O)NC(=O)[C@H]([C@@H](C)O)NC1=O
B9: Compound 84a (peptide)
peptide: {CH2CO}-FNFEDQSAVTWQPCG-NH2
modifications: thioether N-14
SMILES: CC(C)[C@@H]1NC(=O)[C@H](C)NC(=O)[C@H](CO)NC(=O)[C@H](CCC(N)=O)NC(=O)[C@H](CC(=O)O)NC(=O)[C@H](CCC(=O)O)NC(=O)[C@H](Cc2ccccc2)NC(=O)[C@H](CC(N)=O)NC(=O)[C@H](Cc2ccccc2)NC(=O)CSC[C@@H](C(=O)NCC(N)=O)NC(=O)[C@@H]2CCCN2C(=O)[C@H](CCC(N)=O)NC(=O)[C@H](Cc2c[nH]c3ccccc23)NC(=O)[C@H]([C@@H](C)O)NC1=O
B10: Compound 85a (peptide)
peptide: {CH2CO}-FNFEDQSAITWQPCG-NH2
modifications: thioether N-14
SMILES: CC[C@H](C)[C@@H]1NC(=O)[C@H](C)NC(=O)[C@H](CO)NC(=O)[C@H](CCC(N)=O)NC(=O)[C@H](CC(=O)O)NC(=O)[C@H](CCC(=O)O)NC(=O)[C@H](Cc2ccccc2)NC(=O)[C@H](CC(N)=O)NC(=O)[C@H](Cc2ccccc2)NC(=O)CSC[C@@H](C(=O)NCC(N)=O)NC(=O)[C@@H]2CCCN2C(=O)[C@H](CCC(N)=O)NC(=O)[C@H](Cc2c[nH]c3ccccc23)NC(=O)[C@H]([C@@H](C)O)NC1=O
B11: Compound 23a (peptide)
peptide: {CH2CO}-FNFEDQSVDTWQPCGGK-NH2
modifications: thioether N-14
SMILES: CC(C)[C@@H]1NC(=O)[C@H](CO)NC(=O)[C@H](CCC(N)=O)NC(=O)[C@H](CC(=O)O)NC(=O)[C@H](CCC(=O)O)NC(=O)[C@H](Cc2ccccc2)NC(=O)[C@H](CC(N)=O)NC(=O)[C@H](Cc2ccccc2)NC(=O)CSC[C@@H](C(=O)NCC(=O)NCC(=O)N[C@@H](CCCCN)C(N)=O)NC(=O)[C@@H]2CCCN2C(=O)[C@H](CCC(N)=O)NC(=O)[C@H](Cc2c[nH]c3ccccc23)NC(=O)[C@H]([C@@H](C)O)NC(=O)[C@H](CC(=O)O)NC1=O
B12: Compound 61a (peptide)
peptide: {CH2CO}-FNFEDQAPDTWQPCGGK-NH2
modifications: thioether N-14
SMILES: C[C@@H]1NC(=O)[C@H](CCC(N)=O)NC(=O)[C@H](CC(=O)O)NC(=O)[C@H](CCC(=O)O)NC(=O)[C@H](Cc2ccccc2)NC(=O)[C@H](CC(N)=O)NC(=O)[C@H](Cc2ccccc2)NC(=O)CSC[C@@H](C(=O)NCC(=O)NCC(=O)N[C@@H](CCCCN)C(N)=O)NC(=O)[C@@H]2CCCN2C(=O)[C@H](CCC(N)=O)NC(=O)[C@H](Cc2c[nH]c3ccccc23)NC(=O)[C@H]([C@@H](C)O)NC(=O)[C@H](CC(=O)O)NC(=O)[C@@H]2CCCN2C1=O

Target: T1, human Granzyme B (human, UniProt P10144 21-247)
T1 construct: Captured on a Series S Streptavidin chip for SPR; also called hGranzyme B; GzmB
T1 sequence (P10144 21-247 limits assumed): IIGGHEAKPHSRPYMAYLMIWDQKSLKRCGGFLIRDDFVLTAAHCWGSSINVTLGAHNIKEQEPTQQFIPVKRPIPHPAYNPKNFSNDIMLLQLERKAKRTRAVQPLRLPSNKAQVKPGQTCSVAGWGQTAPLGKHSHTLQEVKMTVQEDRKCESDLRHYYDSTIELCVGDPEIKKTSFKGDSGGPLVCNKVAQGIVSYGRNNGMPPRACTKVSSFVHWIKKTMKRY
Assay: SPR, Biacore 8k+, hGranzyme B captured on SA chip, single cycle kinetics, 1:1 model
Experimental: The kinetics of test peptide binding to human Granzyme B (hGranzyme B) was determined by SPR. All experiments were performed at 25° C. using the Biacore 8k+ instrument (Cytiva, Marlborough, MA). The Biacore 8k+ Insight Evaluation Software Version 3.0 was used to fit the data with a 1:1 binding model to determine the association rate constant kₐ (M⁻¹s⁻¹, where “M” ~equals molar and “s” ~equals seconds) and the dissociation rate constant kd (s⁻¹). These rate constants were used to calculate the equilibrium dissociation constant. KD (M)=kd/kₐ.
To measure the binding kinetics of peptides of interest, surfaces were prepared by a capture method to a Series S Streptavidin (SA) chip using a 1×HBS-EP+ running buffer (Cytiva). hGranzyme B was diluted to 10 μg/mL in IX HBS-EP+ and flowed over spot 2 of each flow cell on the chip at a flow rate of 10 ul/min for 20 s to achieve a level of capture of ~1100 RU. An unmodified spot 1 of each flow cell was used as a matrix binding control or reference surface. Binding kinetics were measured using single cycle kinetics at 25° C. by injecting 5 concentrations with 3-fold serial dilutions of test peptides from 0.01 μM to 1 μM. Compound dilutions were performed manually in a running buffer containing 1×HBS-EP+(Cytiva), and a final concentration of 2% DMSO. The interaction analyses over hGranzyme B, were performed using a 120 s association time and a 900 s dissociation time. All experiments were conducted at a flow rate of 50 μL/min with a data collection rate of 10 Hz.
Peptide dilution series included 2 zero concentration points (no compound) which were averaged and subtracted from the peptide concentration injection as DMSO control responses. Binding data acquired from the reference surface (matrix binding control) were subtracted from the binding data for hGranzyme B surface on the chip to determine specific binding. Next, the association phase data were solvent corrected to account for any signal fluctuation throughout the experiment due to subtle DMSO concentration differences. Corrected response data were analyzed using the Biacore 8k+ Evaluation Software Version 3.0 according to the manufacturer. SPR data for representative compounds of the disclosure are found in Table 8.

Binder | Kd [nM]
B1 | 21.3
B2 | 23.9
B3 | 29.2
B4 | 34.4
B5 | 34.8
B6 | 38.8
B7 | 43.4
B8 | 45.8
B9 | 52.2
B10 | 58.3
{CH2CO}-FNFEDQSADTWQPCGGK(RESCA‑1)-NH2 (thioether N-14) [Compound 3a] | 15.1
{CH2CO}-FNFEDQSADTWQPCGGK(Propionyl)-NH2 (thioether N-14) [Compound 4a] | 11.7
{CH2CO}-FNFEDQSADTWQPCGGK(AF647)-NH2 (thioether N-14) [Compound 9a] | 13
{CH2CO}-FNFEDQSADTWQPCGGK(Peg4)-NH2 (thioether N-14) [Compound 16a] | 19
B11 | 27.5
{CH2CO}-FNFEDQSADTWQPCGGK-NH2 (thioether N-14, also called 2b) [Compound 26a] | 15.4
B12 | 6.3
{CH2CO}-FNFEDQSPDTWQPCGGK(NOTA‑1)-NH2 (thioether N-14) [Compound 13a] | 4.4
